Reference: patent US20210238260
Substitutions are numbered along the chain they refer to. In names and notes the source's numbering stands.

B1: FIXa-Y155F/K247N/N249S/R318Y/R338E/T343R/R403E/E410N (protein)
chain 1: YNSGKLEEFVQGNLERECMEEKCSFEEAREVFENTERTTEFWKQYVDGDQCESNPCLNGGSCKDDINSYECWCPFGFEGKNCELDVTCNIKNGRCEQFCKNSADNKVVCSCTEGYRLAENQKSCEPAVPFPCGRVSVSQTSKLTR
chain 2: VVGGEDAKPGQFPWQVVLNGKVDAFCGGSIVNEKWIVTAAHCVETGVKITVVAGEHNIEETEHTEQNRSVIRIIPHHNYNAAINKYNHDIALLELDEPLVLNSYVTPICIADKEYTNIFLKFGSGYVSGWGRVFHKGYSALVLQYLRVPLVDRATCLESTKFRIYNNMFCAGFHEGGRDSCQGDSGGPHVTEVEGTSFLTGIISWGEECAMKGKYGIYTKVSEYVNWIKNKTKLT
B2: FIXa-Y155F/K247N/N249S/R318Y/R338E/R403E/E410N (protein)
chain 1: B1 chain 1
chain 2: B1 chain 2 with R163T
B3: FIXa-I251S/R318Y/R338E/R403E/E410N (protein)
chain 1: B1 chain 1
chain 2: B1 chain 2 with N67K, S69N, I71S, R163T
B4: FIXa-Y155F/K228N/I251S/R318Y/R338E/R403E/E410N (protein)
chain 1: B1 chain 1
chain 2: B1 chain 2 with K48N, N67K, S69N, I71S, R163T
B5: FIXa-Y155F/N260S/R318Y/R338E/T343R/R403E/E410N (protein)
chain 1: B1 chain 1
chain 2: B1 chain 2 with N67K, S69N, N80S
B6: FIXa-K228N/K247N/N249S/R318Y/R338E/T343R/E410N (protein)
chain 1: B1 chain 1
chain 2: B1 chain 2 with K48N, E223R
B7: FIXa-Y155F/K228N/K247N/N249S/R318Y/R338E/T343R/R403E/E410N (protein)
chain 1: B1 chain 1
chain 2: B1 chain 2 with K48N
B8: FIXa-R318Y/R338E/T343R/E410N (protein)
chain 1: B1 chain 1
chain 2: B1 chain 2 with N67K, S69N, E223R
B9: FIXa-K228N/R318Y/R338E/R403E/E410N (protein)
chain 1: B1 chain 1
chain 2: B1 chain 2 with K48N, N67K, S69N, R163T
B10: FIXa-K228N/K247N/N249S/R318Y/T343R/R403E/E410N (protein)
chain 1: B1 chain 1
chain 2: B1 chain 2 with K48N, E158R
B11: FIXa-K247N/N249S/R318Y/R338E/T343R/R403E/E410N (protein)
chain 1: B1 chain 1
chain 2: B1 chain 2
B12: FIXa-D104N/K106S/K247N/N249S/R318Y/R338E/R403E/E410N (protein)
chain 1: B1 chain 1 with D104N, K106S
chain 2: B1 chain 2 with R163T
B13: FIXa-R318Y/T343R/E410N (protein)
chain 1: B1 chain 1
chain 2: B1 chain 2 with N67K, S69N, E158R, E223R
B14: FIXa-K247N/N249S/R318Y/R338E/R403E (protein)
chain 1: B1 chain 1
chain 2: B1 chain 2 with R163T, N230E
B15: FIXa-K228N/K247N/N249S/R318Y/R338E/T343R/R403E/E410N (protein)
chain 1: B1 chain 1
chain 2: B1 chain 2 with K48N

What was measured:
[1] = target: plasma purified human AT-III (antithrombin III); assay: AT-III/UFH inhibition K0.5, ratio to Catalyst Biosciences WT FIXa
[2] = target: plasma purified human antithrombin III (AT-III), as complex with unfractionated heparin; assay: ratio of K0.5 (lower limit) to Catalyst Biosciences WT FIXa, AT-III/UFH inhibition

Chain of Factor X (FX), P00742 (P00742 whole entry, looked up): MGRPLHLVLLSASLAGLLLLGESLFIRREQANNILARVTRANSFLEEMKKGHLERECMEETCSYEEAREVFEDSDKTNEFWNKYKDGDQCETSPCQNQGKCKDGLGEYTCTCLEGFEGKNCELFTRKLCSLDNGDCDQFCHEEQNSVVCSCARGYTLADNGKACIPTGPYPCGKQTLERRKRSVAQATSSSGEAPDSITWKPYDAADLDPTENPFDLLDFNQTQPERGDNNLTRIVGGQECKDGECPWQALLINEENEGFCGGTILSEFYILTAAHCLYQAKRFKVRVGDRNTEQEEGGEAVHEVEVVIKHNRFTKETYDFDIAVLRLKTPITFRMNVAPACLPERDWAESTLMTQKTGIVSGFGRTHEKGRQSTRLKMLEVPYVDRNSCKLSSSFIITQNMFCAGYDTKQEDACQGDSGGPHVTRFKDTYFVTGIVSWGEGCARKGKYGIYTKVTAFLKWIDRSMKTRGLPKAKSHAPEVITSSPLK
Chain of Factor X, P00742 (P00742 whole entry, looked up): as above

Protein | % of WT kcat/KM (Factor X, P00742) | kcat (Factor X, P00742) | kcat/KM (Factor X, P00742) | KM (Factor X (FX), P00742) | KM (Factor X, P00742) | other results
B1 | 864% | 9.7 s⁻¹ | 4e+08 M⁻¹ s⁻¹ | 0.0257 µM |  | 
B2 | 408% |  | 1.8e+08 M⁻¹ s⁻¹ |  | 0.0391 µM | % of WT kcat/KM (Factor X (FX), P00742): 405%; kcat (Factor X (FX), P00742): 6.5 s⁻¹; kcat/KM (Factor X (FX), P00742): 1.9e+08 M⁻¹ s⁻¹; K0.5-mut/K0.5-wt [1]: > 517; K0.5-mut/K0.5-wt [2]: 517
B3 | 344% |  | 1.5e+08 M⁻¹ s⁻¹ |  | 0.0334 µM | % of WT kcat/KM (Factor X (FX), P00742): 334%; kcat (Factor X (FX), P00742): 4.8 s⁻¹; kcat/KM (Factor X (FX), P00742): 1.5e+08 M⁻¹ s⁻¹; K0.5-mut/K0.5-wt [1]: > 517; K0.5-mut/K0.5-wt [2]: 517
B4 | 296% | 5.3 s⁻¹ | 1.4e+08 M⁻¹ s⁻¹ | 0.0393 µM |  | 
B5 | 335% | 5.8 s⁻¹ | 1.5e+08 M⁻¹ s⁻¹ | 0.0402 µM |  | 
B6 |  |  |  |  | 0.0381 µM | kcat (s^-1) of FX activation by FIXa variant in the Xase complex (FVIIIa, PC/PS vesicles, Ca2+), fluorogenic FXa read-out (Factor X (FX), P00742): 4.7 s⁻¹
B7 | 646% | 9.4 s⁻¹ | 3e+08 M⁻¹ s⁻¹ | 0.0368 µM |  | 
B8 | 728% | 4.9 s⁻¹ | 3.4e+08 M⁻¹ s⁻¹ |  |  | catalytic activity (kcat/KM) for activation of FX (Factor X (FX), P00742): displayed some of the greatest increases in catalytic activity
B9 | 349% |  | 1.6e+08 M⁻¹ s⁻¹ |  | 0.0361 µM | K0.5-mut/K0.5-wt [1]: > 517; K0.5-mut/K0.5-wt [2]: 517
B10 |  |  |  |  | 0.125 µM | kcat (s^-1) of FX activation by FIXa variant in the Xase complex (FVIIIa, PC/PS vesicles, Ca2+), fluorogenic FXa read-out (Factor X (FX), P00742): 8.1 s⁻¹
B11 | 824% | 10.6 s⁻¹ | 3.8e+08 M⁻¹ s⁻¹ | 0.0292 µM |  | catalytic activity (kcat/KM) for activation of FX (Factor X (FX), P00742): improved activity when combined with other mutations
B12 | 197% |  | 8.8e+07 M⁻¹ s⁻¹ |  | 0.059 µM | % of WT kcat/KM (Factor X (FX), P00742): 192%; kcat (Factor X (FX), P00742): 5.2 s⁻¹; kcat/KM (Factor X (FX), P00742): 8.8e+07 M⁻¹ s⁻¹; K0.5-mut/K0.5-wt [1]: > 517; K0.5-mut/K0.5-wt [2]: 517
B13 |  |  |  |  | 0.0523 µM | kcat (s^-1) of FX activation by FIXa variant in the Xase complex (FVIIIa, PC/PS vesicles, Ca2+), fluorogenic FXa read-out (Factor X (FX), P00742): 3.2 s⁻¹
B14 | 496% |  | 2.3e+08 M⁻¹ s⁻¹ |  |  | kcat of FX activation by FIXa (Xase complex with FVIIIa, PC/PS vesicles, Ca2+) (Factor X (FX), P00742): 10.5 s⁻¹
B15 | 880% | 9.9 s⁻¹ | 4.1e+08 M⁻¹ s⁻¹ | 0.0251 µM |  | 
